Reference: patent US10323078B2, “Isolated peptides and fragments thereof from fibrinogen for use as drugs, particularly in skin inflammatory diseases” (Universite Paris Descartes, priority 2015, dated 2019)

How the values were obtained:
MRC5 cells = experiment: IL-8 production by P. acnes-stimulated MRC5 (ELISA); assay type: cell-based, human; conditions: 0.87 to 7 μM
Method: FIG. 15: Dose-dependent inhibition of IL-8 production by fibroblast stimulated by P. acnes pre-treated by recombinant peptide. MRC5 cells were incubated for 18 h with P. acnes RON strain at a concentration adjusted to 0.2 of absorbance at 600 nm (blue bar) and with P. acnes pretreated with recombinant peptide Fg1 (light gray bar) and Fg2 (dark gray bar). IL-8 concentration was measured by ELISA as described in Materials and Methods. Control experiment was done on unstimulated HaCaT cell (red bar). Data are means±S.D. of three separate experiments. Statistical significance is indicated by * (P<0.05), ** (P<0.01), *** (P<0.001), and **** (P<0.0001), respectively.
(§1) For experiences of stimulation with P. acnes, cells were incubated with the P. acnes suspension adjusted at the appropriate concentration, pre-treated for 1 h at 37° C. or not with fibrinogen recombinant peptides Fg1 and Fg2 at the concentrations 0.87, 1.75, 3.5 or 7 μM for the desired period of time at 37° C. in 5% CO2.
(§2) Human IL-1ß, IL-8, IL-12, hBD-2, and TNF-α protein concentration was measured in the supernatants of stimulated cells using various ELISA Set kits (Ready-Set-Go kit from eBioscience for acne experiments, and for psoriasis experiments the Duo set IL-8 kit from R&D Systems and the BD-2 Human Development (hBD-2) from Peprotech) according to the manufacturer's instructions. We used serial dilutions of recombinant human IL-1ß, IL-8, IL-12 and TNF-α for standard curve. The optical density was determined at 450 nm at a wavelength correction of 540 nm.
(§3) To assess the efficacy of Fg1 recombinant peptide, the production of O2^∘− and H2O2 by HaCaT cells NHDK, THP-1, MRC5 and HDF stimulated by pretreated P. acnes strains 6919, RON and PIE was measured. The amount of ROS produced was compared to that produced by the stimulated cells with untreated bacteria. Production baseline was obtained by measuring ROS on unstimulated cells. The production of IL-1ß, IL-8, IL-12 and TNF-α was also measured in all conditions cited above. The measurement of the production of ROS is performed by spectrofluorimetry in the presence of specific fluorochromes directly on the monolayer cell. Measurement of cytokine production was performed in parallel on the cell culture supernatant.
(§4) Two sets of experiments were implemented: 1) The cells were stimulated (18 h at 37° C.) by P. acnes strains previously pretreated with Fg1 and Fg2 peptides at the final concentrations ranging from 0.87 to 7 μM for 1 h at 37° C.; and 2) The cells were pretreated first with Fg1 and Fg2 peptides at the final concentrations ranging from 0.87 to 7 μM for 24 h at 37° C. and stimulated (18 h at 37° C.) by P. acnes strains.

ThP1 cells [1] = experiment: IL-12 production by P. acnes-stimulated ThP1 (ELISA); assay type: cell-based, human; conditions: P. acnes 6919, set I, bacteria first pretreated, 0.87 to 7 μM
Method: as §1, §2
as §3, with “The measurement of the production of ROS is performed by spectrofluorimetry in the presence of specific fluorochromes directly on the monolayer cell. Measurement of cytokine production was performed in parallel on the cell culture supernatant.” left out

P. acnes RON strain = experiment: Adhesion assay, biotinylated P. acnes binding to monocytes (ThP1); assay type: cell-based, Propionibacterium acnes; conditions: monocytes (THP-1); bacteria pretreated 0.87 to 7 μM, 1 h at 37° C.
Method: FIG. 13: Dose-dependent inhibition of P. acnes RON binding to monocytes cell line. Biotinylated P. acnes RON strain at concentrations adjusted to 0.1 of absorbance at 600 nm was pre-treated with the recombinant peptides Fg1 and Fg2 and incubated 1 h at 37° C. with the human immortalized monocytes cell line ThP1. After removal of unbound bacteria, adhesion activity was detected at 410 nm. Data are means±S.D. of three separate experiments. Statistical significance is indicated by * (P<0.05), ** (P<0.01), *** (P<0.001), and **** (P<0.0001), respectively.
The bacterial suspension was adjusted at 600 nm to the desired concentration, pretreated with peptides Fg1 and Fg2 at the final concentration ranging from 0.87 to 7 μM for 1 h at 37° C. and deposited on the previously saturated cells with a solution of PBS SVF 2% for 2 h. After incubation for 1 h at 37° C., unbound bacteria are removed by 3 washes with PBS and fixed bacteria are detected by a streptavidin-peroxidase solution of 0.5 μg/ml for 30 min.
Whole P. acnes bacteria are labelled by biotinylation, pre-treated or not with the peptides and contacted with the various cell lines. After removal of the unfixed bacteria, the adhesion activity was measured spectrophotometrically by using the streptavidin-peroxidase conjugate and a chromogenic substrate. […]

ThP1 cells [2] = experiment: IL-1β production by P. acnes-stimulated ThP1 (ELISA); assay type: cell-based, human; conditions: for Inhibition of Interleukine 1 beta (IL-1β) production: ThP1, 0.87 to 7 μM
Method: as §1, §2, §3, §4

HDF cells = experiment: IL-8 production by P. acnes-stimulated HDF (ELISA); assay type: cell-based, human; conditions: 0.87 to 7 μM
Method: as §1, §2, §3, §4

[3] = P. acnes 6919, set I, bacteria first pretreated
[4] = P. acnes 6919, set II, cells first pretreated
[5] = P. acnes PIE, set I, bacteria first pretreated
[6] = P. acnes PIE, set II, cells first pretreated
[7] = P. acnes RON, set I, bacteria first pretreated
[8] = P. acnes RON, set II, cells first pretreated

B1: MKRMVSWSFHKLKTMKHLLLLLLCVFLVKSQGVNDNEEGFFSARGHRPLDKKREEAPSLRPAPPPISGGGYRARPAKAAATQKKVERKAPDAGGCLHADPDLGVLC (protein)
chain: MKRMVSWSFHKLKTMKHLLLLLLCVFLVKSQGVNDNEEGFFSARGHRPLDKKREEAPSLRPAPPPISGGGRARPAKAAATQKKVERKAPDAGGCLHADPDLGVLCMKRMVSWSFHKLKTMKHLLLLLLCVFLVKSQGVNDNEEGFFSARGHRPLDKKREEAPSLRPAPPPISGGGYRARPAKAAATQKKVERKAPDAGGCLHADPDLGVLC
modifications: GST fusion; fragment Fg1
notes: fragment of Bß chain of human fibrinogen having 106 amino acids; recombinant GST-fused peptide expressed in E. coli
- Inhibition of Interleukine 8 (IL-8) production (MRC5 cells; [3]): pos
- Inhibition of Interleukine 8 (IL-8) production (MRC5 cells; [4]): pos
- Inhibition of Interleukine 8 (IL-8) production (MRC5 cells; [5]): pos
- Inhibition of Interleukine 8 (IL-8) production (MRC5 cells; [6]): pos
- Inhibition of Interleukine 8 (IL-8) production (MRC5 cells; [7]): pos
- Inhibition of Interleukine 8 (IL-8) production (MRC5 cells; [8]): pos
- Inhibition of Interleukine 12 (IL-12) production (ThP1 cells [1]): pos
- Inhibition of adhesion of P. acnes RON strain (P. acnes RON strain): inhibits the adhesion of RON strain in a dose-dependent manner
- Inhibition of Interleukine 1 beta (IL-1β) production (ThP1 cells [2]; [3]): NO (Inhibition NO: Fg1 has no effect on the production of inflammatory molecule)
- Inhibition of Interleukine 1 beta (IL-1β) production (ThP1 cells [2]; [4]): NO (Inhibition NO: Fg1 has no effect on the production of inflammatory molecule)
- Inhibition of Interleukine 1 beta (IL-1β) production (ThP1 cells [2]; [5]): NO (Inhibition NO: Fg1 has no effect on the production of inflammatory molecule)
- Inhibition of Interleukine 1 beta (IL-1β) production (ThP1 cells [2]; [6]): NO (Inhibition NO: Fg1 has no effect on the production of inflammatory molecule)
- Inhibition of Interleukine 1 beta (IL-1β) production (ThP1 cells [2]; [7]): NO (Inhibition NO: Fg1 has no effect on the production of inflammatory molecule)
- Inhibition of Interleukine 1 beta (IL-1β) production (ThP1 cells [2]; [8]): NO (Inhibition NO: Fg1 has no effect on the production of inflammatory molecule)
- Effect on the production of IL-1ß (ThP1 cells [2]; whatever the strain of P. acnes used, production effective only for monocytes): no effect
- Inhibition of Interleukine 8 (IL-8) production (HDF cells; [3]): pos
- Inhibition of Interleukine 8 (IL-8) production (HDF cells; [4]): pos
- Inhibition of Interleukine 8 (IL-8) production (HDF cells; [5]): pos
- Inhibition of Interleukine 8 (IL-8) production (HDF cells; [6]): pos
- Inhibition of Interleukine 8 (IL-8) production (HDF cells; [7]): pos
- Inhibition of Interleukine 8 (IL-8) production (HDF cells; [8]): pos
